Consider 1 substance from US8728478.

Experiment [1] deals with Escherichia coli heat-stable enterotoxin A (STa), purified from a bovine ETEC K99+ isolate (Escherichia coli (ETEC isolated from a diarrheic neonatal calf)). As to the kind of experiment: indirect ELISA on plate-bound STa, serum dilution 10^-5, pre-immunization serum. On the technique in general: ELISA stands for enzyme-linked immunosorbent assay.
Experiment [2] has the same target. As to the kind of experiment: avidity ELISA on plate-bound STa, 5 M ammonium thiocyanate, Baseline.
Experiment [3] shares this target.
Experiment [4] shares this target. Description: STa-binding indirect ELISA, end titer.
Experiment [5] shares this target. Description: indirect ELISA on plate-bound STa, serum dilution 10^-3, pre-immunization serum.
Experiment [6] shares this target. Description: indirect ELISA on plate-bound STa, serum dilution 10^-6, pre-immunization serum.
The target is the same in experiment [7]. As to the kind of experiment: indirect ELISA on plate-bound STa, serum dilution 10^-4, pre-immunization serum.

“And” between values parts separate entries of the source, which are not always exact repeats. Equal entries are not always repeated.

As to “baseline (pre-immunization) rabbit serum (antibody)”, the mean OD (405 nm) in experiment [1] was 0.033 OD; in experiment [5] it was 0.864 OD; in experiment [6] it was 0.039 OD; in experiment [7] it was 0.232 OD. The OD at 405 nm with 5 M ammonium thiocyanate in experiment [2] was 0.017 OD and 0.043 OD and 0.04 OD. In addition, the Avidity Index (%) in experiment [3] is 4.7% and 3% and 0%. For the same substance, the ELISA Titer (reciprocal serum dilution) in experiment [4] amounted to 0.
